From patent US20240327503A1 (University of Texas, published 2024) come the findings set out here.

In this test the target is spike protein of SARS-COV-2 WA1 live virus (SARS-CoV-2, UniProt P0DTC2 14-1273). The test can be described thus: cell-based or functional assay.

B1: A7V3 (antibody, V domains shown)
VH: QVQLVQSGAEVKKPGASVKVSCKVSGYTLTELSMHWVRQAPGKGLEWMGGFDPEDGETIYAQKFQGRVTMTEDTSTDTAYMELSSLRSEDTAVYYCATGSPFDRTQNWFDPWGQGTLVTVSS
VL: QSVVTQPPSVSAAPGQKVTISCSGSSSNIGNNYVSWYQQLPGTAPKLLIYDNNKRPSGIPDRFSGSKSGTSATLGITGLQTGDEADYYCGTWDSSLSAVVFGGGTKLTVL
Regarding B1, the “IC50, live virus neutralization of SARS-CoV-2 WA1” value is 0.95 nM.
